{"source": "paper PMC7153410", "origin": "cited, not measured here", "key": {"MD-2 [1]": {"target": "MD-2 (UniProt Q9JHF9)", "sequence (Q9JHF9 19-160)": "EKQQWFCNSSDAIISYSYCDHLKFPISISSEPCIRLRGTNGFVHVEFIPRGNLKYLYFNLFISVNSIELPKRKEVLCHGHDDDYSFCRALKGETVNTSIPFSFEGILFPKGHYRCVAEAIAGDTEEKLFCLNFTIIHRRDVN"}, "RAGE (Homo sapiens) [2]": {"target": "RAGE (Homo sapiens) (UniProt Q15109)", "sequence (Q15109 23-404)": "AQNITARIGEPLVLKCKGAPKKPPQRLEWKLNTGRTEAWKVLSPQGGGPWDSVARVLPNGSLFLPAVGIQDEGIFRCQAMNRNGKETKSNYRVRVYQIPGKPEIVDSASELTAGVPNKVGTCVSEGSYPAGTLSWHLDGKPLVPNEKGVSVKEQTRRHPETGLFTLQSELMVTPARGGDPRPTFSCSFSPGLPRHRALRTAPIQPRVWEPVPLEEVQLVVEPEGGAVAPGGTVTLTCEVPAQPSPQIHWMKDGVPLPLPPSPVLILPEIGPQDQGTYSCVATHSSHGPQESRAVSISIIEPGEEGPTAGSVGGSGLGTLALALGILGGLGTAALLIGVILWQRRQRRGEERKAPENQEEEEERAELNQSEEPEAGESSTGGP"}, "TLR4-MD-2 (Homo sapiens) [3]": {"target": "TLR4-MD-2 (Homo sapiens) (UniProt O00206)", "sequence (O00206 24-839, chain 1 of 2)": "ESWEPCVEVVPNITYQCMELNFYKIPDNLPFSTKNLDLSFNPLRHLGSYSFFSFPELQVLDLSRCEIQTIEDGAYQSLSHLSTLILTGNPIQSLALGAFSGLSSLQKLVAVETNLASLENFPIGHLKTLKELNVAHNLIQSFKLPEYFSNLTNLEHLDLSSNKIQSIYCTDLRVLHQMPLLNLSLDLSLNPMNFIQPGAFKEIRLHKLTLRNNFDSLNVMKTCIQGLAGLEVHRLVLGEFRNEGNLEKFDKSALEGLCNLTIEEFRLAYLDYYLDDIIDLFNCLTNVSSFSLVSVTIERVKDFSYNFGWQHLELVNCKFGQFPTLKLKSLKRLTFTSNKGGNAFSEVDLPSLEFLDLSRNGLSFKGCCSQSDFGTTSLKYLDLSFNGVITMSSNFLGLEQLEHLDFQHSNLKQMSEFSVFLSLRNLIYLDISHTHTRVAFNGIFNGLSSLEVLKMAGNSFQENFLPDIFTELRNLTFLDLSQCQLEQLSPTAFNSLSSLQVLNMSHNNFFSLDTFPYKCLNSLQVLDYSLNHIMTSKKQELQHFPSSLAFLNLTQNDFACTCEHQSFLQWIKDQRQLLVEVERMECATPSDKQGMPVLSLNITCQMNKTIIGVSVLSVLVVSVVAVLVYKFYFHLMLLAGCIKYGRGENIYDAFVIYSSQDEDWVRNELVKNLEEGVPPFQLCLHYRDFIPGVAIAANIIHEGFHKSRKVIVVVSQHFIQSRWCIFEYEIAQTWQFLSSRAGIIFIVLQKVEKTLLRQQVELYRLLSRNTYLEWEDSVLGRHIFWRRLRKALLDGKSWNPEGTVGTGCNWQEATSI", "sequence (Q9Y6Y9 19-160, chain 2 of 2, further chain)": "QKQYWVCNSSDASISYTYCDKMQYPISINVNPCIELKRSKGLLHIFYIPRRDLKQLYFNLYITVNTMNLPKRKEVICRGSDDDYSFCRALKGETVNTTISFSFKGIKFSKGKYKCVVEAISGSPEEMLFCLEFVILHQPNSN"}, "RAGE (Homo sapiens) [4]": {"target": "RAGE (Homo sapiens) (UniProt Q15109)", "remark": "listed apart in the source"}, "MD-2 [5]": {"target": "MD-2 (UniProt Q9JHF9)", "remark": "listed apart in the source"}, "TLR4-MD-2 (Homo sapiens) [6]": {"target": "TLR4-MD-2 (Homo sapiens) (UniProt O00206)", "remark": "listed apart in the source"}, "RAGE (Homo sapiens) [7]": {"target": "RAGE (Homo sapiens) (UniProt Q15109)", "remark": "listed apart in the source"}}, "note": "Like-named read-outs stand apart in the source and are kept apart here."}
{"substance": "S100A8 2-89 (from UniProt P27005)", "values": [{"measurement": "Kd", "setting": "MD-2 [1]", "result": 0.73, "unit": "µM"}]}
{"substance": "S100A8-S100A9 (from UniProt P05109)", "values": [{"measurement": "Kd", "setting": "RAGE (Homo sapiens) [2]", "result": 0.0094, "unit": "µM"}, {"measurement": "Kd", "setting": "TLR4-MD-2 (Homo sapiens) [3]", "result": 0.0038, "unit": "µM"}]}
{"substance": "S100A12 (from UniProt P80511)", "values": [{"measurement": "Kd", "setting": "RAGE (Homo sapiens) [4]", "result": 0.09, "unit": "µM"}]}
{"substance": "SAA3 43-57 (from UniProt P04918)", "values": [{"measurement": "Kd", "setting": "MD-2 [5]", "result": 30, "unit": "µM"}]}
{"substance": "S100A9 (from UniProt P06702)", "values": [{"measurement": "Kd", "setting": "TLR4-MD-2 (Homo sapiens) [6]", "result": 0.0021, "unit": "µM"}, {"measurement": "Kd", "setting": "RAGE (Homo sapiens) [7]", "result": 0.038, "unit": "µM"}]}
